Experimental data reported in article PMC10322703 (Nature Microbiology, 2023).
Substitutions are numbered along the chain they refer to.

B1: SNV-42, human monoclonal antibody (IgG1) (antibody, V domains shown)
VH: EVQLVESGGGLVQPGGSLRLSCAASGFTFSTYEMNWVRQAPGKGLEWVSYIRSSGSTVYYADSVKGRFTISRDNAKNLLYLQMNSLRAGDTAVYYCARIPGGYTGYFDYWGQGALVTVSS
VL: QSVLTQPPSVSGAPGQRVTISCTGSSSNIGAGYYVHWYQQLPGTVPKLLIYGNNNRPSGVPDRFSGSKSGTSASLAITGLQTEDEADYYCQSYDSSLSGWVFGGGTKLTVL
B2: SNV-42 Fab (Fab, V domains shown)
VH: B1 VH
VL: B1 VL
B3: SNV-42^GR, germline-revertant form of SNV-42 (IgG1) (antibody, V domains shown)
VH: B1 VH with T31S, R52S, V58I, L78S, G89E, T104S, A114T
VL: B1 VL with Y34D, V45A, N54S, T82A
B4: SNV-42 F(ab')2 (other)
chain 1: B1 VH
chain 2: B1 VL

Molecular target: SNV Gn^H, recombinant histidine-tagged N-terminal ectodomain region (head domain) of Sin Nombre viru (Sin Nombre virus, UniProt Q89905)
Experiment: BLI
Conditions: both partners purified

Binder	Kd [nM]	koff [s⁻¹]	kon [M⁻¹ s⁻¹]
B1	< 0.001	< 1e-07	132000
B2	–	0.00561	139000
B3	0.811	0.000454	514000
B4	< 0.001	< 1e-07	61400
